Test results as given in PMC2807407 (Molecular cell, 2009).
Changes are numbered by the printed parent chain.

T1: Dsk2-UBL D64K (Saccharomyces cerevisiae, UniProt P48510 1-75, D64K)
T1 sequence: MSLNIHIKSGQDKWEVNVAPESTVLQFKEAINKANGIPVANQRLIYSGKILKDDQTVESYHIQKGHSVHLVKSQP

T2: Dsk2 (full length) (Saccharomyces cerevisiae, UniProt P48510 1-373)
T2 sequence (looked up): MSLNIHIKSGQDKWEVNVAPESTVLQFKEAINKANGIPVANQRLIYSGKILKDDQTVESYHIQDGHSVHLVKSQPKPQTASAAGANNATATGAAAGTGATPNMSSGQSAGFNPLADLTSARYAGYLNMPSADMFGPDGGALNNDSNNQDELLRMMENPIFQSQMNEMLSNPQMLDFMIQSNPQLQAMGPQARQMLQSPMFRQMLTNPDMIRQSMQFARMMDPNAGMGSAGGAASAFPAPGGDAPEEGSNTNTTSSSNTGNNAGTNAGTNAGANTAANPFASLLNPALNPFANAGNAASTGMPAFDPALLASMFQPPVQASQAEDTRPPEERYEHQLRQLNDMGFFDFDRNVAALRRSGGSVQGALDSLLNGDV

B1: Dsk2-UBL (domain or fragment, Saccharomyces cerevisiae)
chain: T1 sequence with K64D
B2: Rpn10 C-terminal construct Rpn10_(204-268) (domain or fragment, Saccharomyces cerevisiae, UniProt P38886 204-268, looked up)
chain: GSGGDSDANGTFMDFGVDPSMDPELAMALRLSMEEEQQRQERLRQQQQQQDQPEQSEYPEQHQDK

What was measured:
[1] = biological target: B2; experiment: NMR titration
Dsk2-UBL [2] = biological target: B1; experiment: SPR
Dsk2-UBL D64K [3] = biological target: T1, Dsk2-UBL D64K; experiment: SPR
Dsk2 (full length) = biological target: T2, Dsk2 (full length); experiment: SPR
Dsk2-UBL [4] = biological target: B1; experiment: NMR titration
Dsk2-UBL D64K [5] = biological target: T1, Dsk2-UBL D64K; experiment: NMR titration

Binder	stoichiometry N [1]	Kd (Dsk2-UBL [2]) [µM]	Kd (Dsk2-UBL D64K [3]) [µM]	Kd (Dsk2 (full length)) [µM]	Kd (Dsk2-UBL [4]) [µM]	Kd (Dsk2-UBL D64K [5]) [µM]
B1	1	–	–	–	–	–
B2	–	9	31.8	12.5	3.5 ± 0.7	39 ± 17
